Assay: soluble on expression in E. coli; label from the status in PepcDB or PDB records

Sequence	soluble on expression in E. coli
MAQTKPIAEQMAALNNSDDTSFAADRSNSLLNATCPARIQNSVDQRKINRSFNDSLSSGYSGKWLRPKREALKITPLAQIDEAPATKRHSSAKDKHTEYKTRLCDAFRREGYCPYNDNCTYAHGQDELRVPRRRQEYYSRDPPRERRDSRSRRDDVDTTINRSSSSASKHHDENRRPSNNHGSSNRRQICHNFERGNCRYGPRCRFIHVEQMQHFNANATVYAPPSSDCPPPIAYYHHHPQHQQQFLPFPMPYFLAPPPQAQQGAPFPVQYIPQQHDLMNSQPMYAPMAPTYYYQPINSNGMPMMDVTIDPNATGGAFEVFPDGFFSQPPPTIIS	not soluble
SVTDNNGAVKFPQLCKFCDVRFSTCDNQKSCMSNCSITSICEKPQEVCVAVWRKNDENITLETVCHDPKLPYHDFILEDAASPKCIMKEKKKPGETFFMCSCSSDECNDNIIFSEEYNTSNPD	soluble
MDSVVSDVSDLVEPDEELKAWQTDRTRAPIATKIVVAGGFGAGKTTLVTAVSEITPLQTEALMTQASEDTDDLTGTPDKLTTTVAMDFGRITLDDDLVLYLFGTPGQQRFWFMWDDLVRGAIGAVVLADTRRLSDCFPALDYFESCGLPYVVAVNHFDGSEKFEPEDVREALTVPAHIPVMIMDARRRISVIETLLALVGHALEVSPELEHHHHHH	soluble
PDYIYAKDTAGRFLIANEVTVADNGLESLRDLVGKTDFDLHPHEFAQAVADTERRVLETGEPIFGIEERAIVTKDRDRWLMTSKVPLRSKSGRIIGIVGISRD	not soluble
SLIKNGELKPGDKLDSVQALAESFQVSRSAVREALSALKAMGLVEMKQGEGTYLKEFELNQISQPLSAALLMKKEDVKQLLEVRKLLEIGVASLAAEKRTEADLERIQDALKEMGSIEADGELGEKADFAFHLALADASQNELLKHLMNHVSSLLLETMRETRKIWLFSKKTSVQRLYEEHERIYNAVAAGNGAQAEAAMLAHLTNVEDVLSGYFEENVQ	soluble
MGSSHHHHHHMAYTNTPHNWGIPRPKNETVPDAGKLYTDLLQKNGGFYLGDTKKKDIYLTFDNGYENGYTGKILDVLKEKKVPATFFVTGHYIKTQKDLLLRMKDEGHIIGNHSWSHPDFTAVNDEKLREELTSVTEEIKKVTGQKEVKYVRPPRGVFSERTLALTKEMGYYNVFWSLAFLDWKVDEQRGWQYAHNNVMTMIHPGSILLLHAISKDNAEALAKIIDDLREKGYHFKSLDDLVKSNQP	soluble
LDFDILTNDGTHRNMKLLIDLKNIFSRQLPKMPKEYIVKLVFDRHHESMVILKNKQKVIGGICFRQYKPQRFAEVAFLAVTANEQVRGYGTRLMNKFKDHMQKQNIEYLLTYADNFAIGYFKKQGFTKEHRMPQEKWKGYIKDYDGGTLMECYIHPYVDYGR	soluble
MVKLKVEDLEMDKIAPLAPEVSLKMAWNIMRDKNLKSIPVADGNNHLLGMLSTSNITATYMDIWDSNILAKSATSLDNILDTLSAEAQNINEERKVFPGKVVVAAMQAESLKEFISEGDIAIAGDRAEIQAELIELKVSLLIVTGGHTPSKEIIELAKKNNITVITTPHDSFTASRLIVQSLPVDYVMTKDNLVAVSTDDLVEDVKVTMSETRYSNYPVIDENNKVVGSIARFHLISTHKKKLEHHHHHHHH	soluble
GLEAVRKRPGMYIGSTSERGLHHLVWEIVDNSIDEALAGYANQIEVVIEKDNWIKVTDNGRGIPVDIQEKMGRPAVEVILTSSVVNALSQDLEVYVHRNETIYHQAYKKGVPQFDLKEVGTTDKTGTVIRFKADGEIFTETTVYNYETLQQRIRELAFLNKGIQITLRDERDEENVREDSYHYE	soluble
MSLDLRKINLNLLLHLDTLLNELSVSKAAEKSFMSQTAMSHILKQLRDIFDDPLFIRKPHGLQPTQKVLDLAPKIKKFLNYSNDIFEEDTFNPGNDNLFLKTASVGTGEYFILPRLCAHLAKNAPKFVLKISSLSEYLSLEYLLMSELDFAIGPGFVETGNNIIRELLFEEEAVCIMHKSHPLANQELTQDMYLQAEHVDIQFSYMGNENILYKALQGYHQRNIKVIVPNIISALEVVYHTNFITTVPRTLAVTFKDRYQIELHPFPFPKKTFLVNFYYHKRLSNHKPLQWVLDVIKKYCCVNHEGHHHHHH	soluble
FVNVGERTNVTGSKMFARLVREEKYDEALAVARQQVENGAQIIDVNMDEAMLDSVACMHRFLNLIASEPDIARVPVMIDSSKWEVIETGLKCVQGKAVVNSISMKEGEEPFRHHARLCRRYGAAMVVMAFDEQGQADSLERRKEICGRAYRILVEEEGFPPEDIIFDPNVFAVATGIDEHNHYAVDFIEGARWIRANLPHARISGGISNVSFSFRGNEPMREAIHTVFLYYAIEAGLTMGIVNAGQLGVYADLAPHLRDLVEDVILDRPE	not soluble
SVNAATVDLRIMETTDLHSNMMDFDYYKDAATEKFGLVRTASLIEQARAEVKNSVLVDNGDVIQGSPLGDYMAAKGLKEGDVHPVYKAMNTLNYAVGNLGNHEFNYGLDFLHKALAGAKFPYVNANIIDAKTGKPMFTPYLIQDTRVVDSDGQIHTLRIGYIGFVPPQIMTWDKANLNGKVTVNDITETARKYIPEMRAKGADVVVVVAHSGLSADPYQAMAENSVYYLSQVPGVDAIMFGHAHAVFPGKDFANIKGADIAKGTLNGVPAVMPGMWGDHLGVVDLVLNNDSGKWQVTQSKAEARPIYDAVAKKSLAAEDGKLVSVLKADHDATREFVSK	soluble
MKAPFFNAPIFRQLIEFKSSTYTYIIGCHKTGKAVIIDPVVDTVSRDIQIIRDLNLDLIYGLNTHVHADHITGTNSLKTVFPTMKSVLSSKSGGEADKYVSDGEIIEIGGLKLEVRETPGHTNGCLTYVEHSLRSAFTGDALLIRACGRTDFQQGNPASLFDSVHDKIFTLPEDYVVYVGHNYNGVLQTTVWEEKNLNPRLTKSKDQFVEIMKNLKLNYPKQIDKAVPANMVDGKGH	not soluble
MGSDKIHHHHHHLSIARETGSILLIPSTTTLRRAFDFETTFNDSIQFVGEDLSRQLAEDLNASKITLTSCCAYRNLSTILFNDSRIIERIDGYFQNFRYFHPDSQKIVKKLFTFMDPVRKRVSFWNIIYWNIHPTNHRKKPEKSTVSIFSFVTFQLRVDEFLENVGISLTVRNARVIETNVANDDQALELPEEDAFAKTMMVGVHIRHGMDISMNSRNRIHGHVDTPIEYYKRAIQQISKIYENVAFIICSDNVAWARRNLKLGKETLHFFCPGPREVDMAILKSCDSVIISTGTFGWWSAYLNVNASPDVYYYKHWPAPGSVMEKMTNKTEYF	not soluble
GSHMAMAYVIRDEWGNQIWICPGCNKPDDGSPMIGCDDCDDWYHWPCVGIMAAPPEEMQWFCPKCANKIKKDKKH	soluble
MTATATEGAKPPFVSRSVLVTGGNRGIGLAIAQRLAADGHKVAVTHRGSGAPKGLFGVEVDVTDSDAVDRAFTAVEEHQGPVEVLVSNAGLSADAFLMRMTEEKFEKVINANLTGAFRVAQRASRSMQRNKFGRMIFIGSVSGLWGIGNQANYAASKAGVIGMARSIARELSKANVTANVVAPGYIDTDMTRALDERIQQGALQFIPAKRVGTPAEVAGVVSFLASEDASYISGAVIPVDGGMGMGH	soluble
MAHHHHHHMNESVEQLFDELISDFNKNDKIGEGNESFNIREKVGNKWTNEDILNNINKNDFSKYTEYSLSSLYITDERIHIDEDNKFQDFLNVITKASDVNNIYKWIDSYYKYDSKEELDILSPKAQKKEYIFREYLEPFHLKGLCLLRKYEKGAILKSSEKSKVDVNIVSEYIVHNTYKQIMKSFGYYLSHKIYIKAHIFHNKYGNSDHIIVLILQHFKDENFKQPLFHDRALVQIKSYSNDNKYSELTQKNLLHYAEIFKPFVSLRKLNYNFVEEFKDKIMFGI	soluble
MAQYRPDELARYAQRVMDWLHPDGDLTDTERARKRGITLSNQQYDGMSRLSGYLTPQARATFEAVLAKLAAPGATNPDDHTPVIDTTPDAAAIDRDTRSQAQRNHDGLLAGLRALIASGELGQHNGLPVSIVVTTTLTDLQTGAGKGFTGGGTLLPMADVIRMTSHAHHYSPASGRYPQAIFDHGTPLALYHTKRLASPAQRIMLEHHHHHH	soluble
MLTLLRRGLLVFLAAFPLLSMAAPTPQQVVQGTVDELLSDIKANKAAYKADPQKLYATLDRILGPVVDAEGIAKSVMTVKYSRQASPEQIKRFEEVFKNSLMQFYGNALLEYDNQDIRVLPSSAKPSDDRASVNMEIRDSKGTVYPVSYTMTNLAGGWKVRNVIINGINIGKLFRDQFADTMQKNRNDLEKTIAGWGEVVAKAKETAKAEEAGAKAAALEHHHHHH	soluble
MGSDKIHHHHHHMERLCEQVRKVRRWLIDQPFDGILLSEQKNIAWLTGARAYVNLATERSIVFFLITESETVMYCSNIEKERLLAEEIGDTVGEIHVFPWYDPLLAESITQEQSKIGKVVLDREVESAFKAVRSALSPSQVAGYRQLGKLSAAAVEETALGLQRGETELEIAGRLANAAIKRGIEPVVNLVAVDDRVSAYRHPLPTDKRLDRYVMIVLSGRRNGQYISLTRLVHFGVIPIDLKKKHAAVCTIDSRLMHHTRVGQSMGDLFKEMKAAYATVGYLHEWKNHHQGGLTGYVGRERLLQPDAQELIQANEVYAWNPSITGTKSEDTILVTESGPEILTLGKKFPLMTVTVAGCTYERPDILGRNDG	not soluble
MGSDKIHHHHHHMTPRDTVAAFPATSQQSAIRATPFVWIEPANIPPRKWLYGHHLIRGYVSLTVAPGATGKSSLLIADALAMSANRNLVGTPVYAGRPLRVWIWNLEDPIDELQRRITATAIQYQIHSTDIEGRLFVDSGRDQSLCIARQGHNGIEILDPVIDALQAEILAREIDVLIVDPFVSSHQVSENDNGAIDAVAKKWGAIADRTGCAIELVHHLRKLPHGIEATAESARGAVSLVAAARSVRVLNRMAKEEALQCGLTSNKGHFKVSDDKNNLAAATDSENWFRMESVQLDNGDNVGVVVQWDKPDPFDGITPRHLLAVQKAIDGKDYRQNVQATDWVGQHIGHIVGLDPAKPHDKNRLKSLIKTWINNGALIADEIMNKKGRPTPVIAVGKWVTAAEVAATNVADDEFPLG	not soluble
MGSDKIHHHHHHMGLAKTRSAAISGVTGVIVDVEANIGAGLPGTYIVGLADAAVAEARQRIKTAVNNSELPWPKTKVIVNLSPASLRKNGAQFDLGICMAIMAASGMHNPDCRDIENTLFLGEIGLDGAIKPISGLVPALLAARGAEIRNVVIPWGNAAEAMAVIDDSAMNVLVARSISEATEWLKGKDDLIAAHDVILDEHATKKQPHKVGDMQDVVGQSDAKKAAEIAVAGGHNIVMIGPPGSGKSMIAQRMAGLLPALTHTEMIEATAIHSVMGQAFNGPMTHPPFVAPHHSITKAALLGGGSGNLQPGAASLAHTGVLFLDEVSEIPANILDCLRMPLECGEIKLMRHRREVTFPARFQLVMATNPCRCAAELPSECRCSATTRARYLSNISGPLRDRLDIFVRTHAQGAVISDANQESSKSIAERVQSARERSEHRWRTAGFTVTTNAAMDPYHLRRHFPADEASMALLSSYLGDGELSQRGVDRALKVAWTLCDLEGKTRPDLGHTAYALELRDDCIRENAA	not soluble
MLDGLFNWAIARNIMNYNPLPTDKPNRPQGFIPYIYKREELKKIIDKSMTYRSFYTTFYPETIRGIIMLTYLWGLRPSETLGIEMADVHLGTDNYIVIKQMKFYNTRIVTFNDRSLLL	not soluble
MSVDKSPVYEVKAVPVEKVLANDYNPNVVAPPEMKLLELSIWEDGFTMPCVCYYNKEEDNYILVDGYHRYTVLKTSKRIYKRENGLLPIVVIDKDLSNRMSSTIRHNRARGMHN	soluble
